Laboratory results as given in paper PMC2756588.

T1: Lsb1, P53281
T1 sequence (P53281 45-122, looked up): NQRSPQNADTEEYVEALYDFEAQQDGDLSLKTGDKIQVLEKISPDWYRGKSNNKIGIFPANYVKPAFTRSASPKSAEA

T2: Pin3, Q06449
T2 sequence (Q06449 53-122, looked up): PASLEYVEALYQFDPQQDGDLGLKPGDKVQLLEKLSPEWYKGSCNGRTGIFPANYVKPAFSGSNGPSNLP

T3: Bbc1, P47068
T3 sequence (P47068 1-78, looked up): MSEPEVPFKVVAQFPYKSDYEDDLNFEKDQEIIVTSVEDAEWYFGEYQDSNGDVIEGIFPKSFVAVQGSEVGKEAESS

T4: Hof1, Q05080
T4 sequence (Q05080 590-669, looked up): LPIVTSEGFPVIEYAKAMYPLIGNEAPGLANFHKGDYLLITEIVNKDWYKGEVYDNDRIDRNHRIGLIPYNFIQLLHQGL

T5: Lsb3, P43603
T5 sequence (P43603 385-451, looked up): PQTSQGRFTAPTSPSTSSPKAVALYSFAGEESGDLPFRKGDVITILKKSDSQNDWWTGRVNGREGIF

T6: Bzz1-1, P38822
T6 sequence (P38822 478-572, looked up): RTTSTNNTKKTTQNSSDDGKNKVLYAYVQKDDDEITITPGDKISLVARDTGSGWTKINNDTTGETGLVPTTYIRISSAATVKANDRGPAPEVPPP

T7: Bud14, P27637
T7 sequence (P27637 247-328, looked up): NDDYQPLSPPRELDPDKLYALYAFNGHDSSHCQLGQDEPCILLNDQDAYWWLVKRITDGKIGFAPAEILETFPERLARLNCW

T8: Nbp2, Q12163
T8 sequence (Q12163 103-180, looked up): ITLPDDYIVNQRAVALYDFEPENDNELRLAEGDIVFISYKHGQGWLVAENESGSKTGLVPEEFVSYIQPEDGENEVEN

T9: Sla1-3, P32790
T9 sequence (P32790 344-424, looked up): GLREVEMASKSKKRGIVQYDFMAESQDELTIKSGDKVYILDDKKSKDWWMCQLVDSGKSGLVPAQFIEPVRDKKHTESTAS

T10: Abp1, P15891
T10 sequence (P15891 535-592, looked up): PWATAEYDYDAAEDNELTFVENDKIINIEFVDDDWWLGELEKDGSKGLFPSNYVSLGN

T11: Pex13, P80667
T11 sequence (P80667 295-386, looked up): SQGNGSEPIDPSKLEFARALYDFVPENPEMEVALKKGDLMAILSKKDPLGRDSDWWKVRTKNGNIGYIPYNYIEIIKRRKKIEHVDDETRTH

T12: Fus1, P11710
T12 sequence (P11710 432-512, looked up): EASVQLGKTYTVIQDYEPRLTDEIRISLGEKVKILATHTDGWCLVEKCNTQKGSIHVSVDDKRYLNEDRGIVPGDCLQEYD

T13: Hse1, P38753
T13 sequence (P38753 208-285, looked up): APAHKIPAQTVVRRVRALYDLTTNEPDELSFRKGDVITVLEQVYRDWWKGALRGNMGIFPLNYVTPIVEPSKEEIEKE

T14: Lsb4, P32793
T14 sequence (P32793 402-468, looked up): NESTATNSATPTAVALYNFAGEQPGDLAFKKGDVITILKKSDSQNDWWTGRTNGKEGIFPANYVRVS

T15: Boi2, P39969
T15 sequence (P39969 32-116, looked up): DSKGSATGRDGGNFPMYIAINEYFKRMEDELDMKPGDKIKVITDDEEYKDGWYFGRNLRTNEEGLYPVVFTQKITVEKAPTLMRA

T16: Bzz1-2, P38822
T16 sequence (P38822 568-633, looked up): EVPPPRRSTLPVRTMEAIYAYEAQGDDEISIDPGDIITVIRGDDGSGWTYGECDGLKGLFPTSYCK

T17: Sla1-2, P32790
T17 sequence (P32790 60-140, looked up): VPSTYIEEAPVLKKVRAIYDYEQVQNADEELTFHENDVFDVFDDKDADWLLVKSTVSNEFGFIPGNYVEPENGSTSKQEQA

T18: Cdc25, P04821
T18 sequence (P04821 50-136, looked up): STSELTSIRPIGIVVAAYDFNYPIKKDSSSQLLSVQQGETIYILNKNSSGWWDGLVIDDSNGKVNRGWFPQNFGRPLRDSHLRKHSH

T19: Myo5, Q04439
T19 sequence (Q04439 1072-1160, looked up): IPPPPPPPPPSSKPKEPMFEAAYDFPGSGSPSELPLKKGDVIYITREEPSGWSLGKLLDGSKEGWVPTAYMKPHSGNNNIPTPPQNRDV

T20: Boi1, P38041
T20 sequence (P38041 1-86, looked up): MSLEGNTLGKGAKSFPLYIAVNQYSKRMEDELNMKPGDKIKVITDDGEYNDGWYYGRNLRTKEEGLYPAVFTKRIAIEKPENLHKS

T21: Cyk3, Q07533
T21 sequence (Q07533 1-83, looked up): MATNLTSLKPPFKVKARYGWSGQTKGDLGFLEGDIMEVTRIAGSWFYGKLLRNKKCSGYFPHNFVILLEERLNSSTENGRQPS


Assays:
Assay in all cases: SPOT array
Lsb1, P53281 = target: T1, Lsb1, P53281; details: median of control spots 388
Myo3, P36006 = details: median of control spots 468
Sho1, P40073 = details: median of control spots 1148
Bem1-2, P29366 = details: median of control spots 4347
Pin3, Q06449 = target: T2, Pin3, Q06449; details: median of control spots 2171
Bbc1, P47068 = target: T3, Bbc1, P47068; details: median of control spots 796
Hof1, Q05080 = target: T4, Hof1, Q05080; details: median of control spots 4086
GST = details: median of control spots 978
Lsb3, P43603 = target: T5, Lsb3, P43603; details: median of control spots 406
Bzz1-1, P38822 = target: T6, Bzz1-1, P38822; details: median of control spots 4446
Bud14, P27637 = target: T7, Bud14, P27637; details: median of control spots 956
Nbp2, Q12163 = target: T8, Nbp2, Q12163; details: median of control spots 357
Sla1-3, P32790 = target: T9, Sla1-3, P32790; details: median of control spots 5475
Abp1, P15891 = target: T10, Abp1, P15891; details: median of control spots 935
Pex13, P80667 = target: T11, Pex13, P80667; details: median of control spots 1341
Rvs167, P39743 = details: median of control spots 2707
Bem1-1, P29366 = details: median of control spots 4282
Fus1, P11710 = target: T12, Fus1, P11710; details: median of control spots 1200
Hse1, P38753 = target: T13, Hse1, P38753; details: median of control spots 1727
Lsb4, P32793 = target: T14, Lsb4, P32793; details: median of control spots 397
Boi2, P39969 = target: T15, Boi2, P39969; details: median of control spots 1161
Bzz1-2, P38822 = target: T16, Bzz1-2, P38822; details: median of control spots 4538
Sla1-2, P32790 = target: T17, Sla1-2, P32790; details: median of control spots 712
Cdc25, P04821 = target: T18, Cdc25, P04821; details: median of control spots 969
Myo5, Q04439 = target: T19, Myo5, Q04439; details: median of control spots 471
Boi1, P38041 = target: T20, Boi1, P38041; details: median of control spots 1162
Cyk3, Q07533 = target: T21, Cyk3, Q07533; details: median of control spots 1451

Chain of Bem1-1, P29366 (P29366 55-141): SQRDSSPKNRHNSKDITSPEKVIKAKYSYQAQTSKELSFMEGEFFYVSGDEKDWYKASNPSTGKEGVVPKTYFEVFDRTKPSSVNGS
Chain of Bem1-2, P29366 (P29366 139-227): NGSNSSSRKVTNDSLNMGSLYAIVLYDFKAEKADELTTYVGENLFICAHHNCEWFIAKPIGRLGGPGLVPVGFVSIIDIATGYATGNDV
Chain of Rvs167, P39743 (P39743 419-482): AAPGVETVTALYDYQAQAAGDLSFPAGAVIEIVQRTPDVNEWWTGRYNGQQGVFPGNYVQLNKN
Chain of Sho1, P40073 (P40073 287-367): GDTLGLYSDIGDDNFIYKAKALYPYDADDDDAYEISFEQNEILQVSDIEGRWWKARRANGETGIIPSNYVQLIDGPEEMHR

Row | Binder | SPOT intensity (Lsb1, P53281) | SPOT intensity (Myo3, P36006) | SPOT intensity (Sho1, P40073) | SPOT intensity (Bem1-2, P29366) | SPOT intensity (Pin3, Q06449) | SPOT intensity (Bbc1, P47068) | SPOT intensity (Hof1, Q05080) | SPOT intensity (GST) | SPOT intensity (Lsb3, P43603) | SPOT intensity (Bzz1-1, P38822) | SPOT intensity (Bud14, P27637) | SPOT intensity (Nbp2, Q12163) | SPOT intensity (Sla1-3, P32790) | SPOT intensity (Abp1, P15891) | SPOT intensity (Pex13, P80667) | SPOT intensity (Rvs167, P39743) | SPOT intensity (Bem1-1, P29366) | SPOT intensity (Fus1, P11710) | SPOT intensity (Hse1, P38753) | SPOT intensity (Lsb4, P32793) | further results
1 | ITHRLRISIPGITGR | 231 | 37 | 191 | 6 | 69 | 24 | 1 | 0 | 9 | 1 | 8 | 32 | 2 | 118 | 32 | 0 | 0 | 39 | 11 | 5 | SPOT intensity (Boi2, P39969): 1; SPOT intensity (Bzz1-2, P38822): 0; SPOT intensity (Sla1-2, P32790): 4; SPOT intensity (Cdc25, P04821): 29; SPOT intensity (Myo5, Q04439): 4; SPOT intensity (Boi1, P38041): 1; SPOT intensity (Cyk3, Q07533): 0
2 | SHRLWLYAAPKRPKT | 0 | 6 | 39 | 0 | 13 | 34 | 5 | 0 | 5 | 2 | 5 | 1 | 16 | 47 | 8 | 0 | 0 | 20 | 8 | 0 | SPOT intensity (Boi2, P39969): 0; SPOT intensity (Bzz1-2, P38822): 0; SPOT intensity (Sla1-2, P32790): 3; SPOT intensity (Cdc25, P04821): 5; SPOT intensity (Myo5, Q04439): 0; SPOT intensity (Boi1, P38041): 1; SPOT intensity (Cyk3, Q07533): 4
3 | KTRLRPAFIQQLWSS | 0 | 0 | 22 | 0 | 15 | 17 | 0 | 0 | 0 | 0 | 4 | 4 | 33 | 31 | 7 | 1 | 1 | 7 | 5 | 0 | SPOT intensity (Boi2, P39969): 0; SPOT intensity (Bzz1-2, P38822): 0; SPOT intensity (Sla1-2, P32790): 0; SPOT intensity (Cdc25, P04821): 13; SPOT intensity (Myo5, Q04439): 0; SPOT intensity (Boi1, P38041): 1; SPOT intensity (Cyk3, Q07533): 3
4 | NNFYRPLLRSVLVLL | 0 | 0 | 17 | 3 | 5 | 37 | 0 | 1 | 1 | 3 | 14 | 3 | 4 | 14 | 4 | 2 | 0 | 13 | 0 | 0 | SPOT intensity (Boi2, P39969): 2; SPOT intensity (Bzz1-2, P38822): 2; SPOT intensity (Sla1-2, P32790): 0; SPOT intensity (Cdc25, P04821): 22; SPOT intensity (Myo5, Q04439): 0; SPOT intensity (Boi1, P38041): 6; SPOT intensity (Cyk3, Q07533): 9

The next lines start with results.

Row | SPOT intensity (Lsb1, P53281) | SPOT intensity (Myo3, P36006) | SPOT intensity (Sho1, P40073) | SPOT intensity (Bem1-2, P29366) | SPOT intensity (Pin3, Q06449) | SPOT intensity (Bbc1, P47068) | SPOT intensity (Hof1, Q05080) | SPOT intensity (GST) | SPOT intensity (Lsb3, P43603) | SPOT intensity (Bzz1-1, P38822) | SPOT intensity (Bud14, P27637) | SPOT intensity (Nbp2, Q12163) | SPOT intensity (Sla1-3, P32790) | SPOT intensity (Abp1, P15891) | SPOT intensity (Pex13, P80667) | SPOT intensity (Rvs167, P39743) | SPOT intensity (Bem1-1, P29366) | SPOT intensity (Fus1, P11710) | SPOT intensity (Hse1, P38753) | SPOT intensity (Lsb4, P32793) | Binder | further results
5 | 7 | 12 | 53 | 1 | 54 | 23 | 5 | 0 | 0 | 0 | 27 | 9 | 17 | 63 | 21 | 0 | 0 | 38 | 8 | 0 | LKQRFFLMFPKSIIW | SPOT intensity (Boi2, P39969): 1; SPOT intensity (Bzz1-2, P38822): 0; SPOT intensity (Sla1-2, P32790): 0; SPOT intensity (Cdc25, P04821): 25; SPOT intensity (Myo5, Q04439): 0; SPOT intensity (Boi1, P38041): 2; SPOT intensity (Cyk3, Q07533): 4
6 | 0 | 3 | 43 | 6 | 20 | 7 | 12 | 1 | 0 | 3 | 10 | 0 | 14 | 10 | 16 | 2 | 43 | 565 | 6 | 1 | HHNRRKPLEVYFKAT | SPOT intensity (Boi2, P39969): 2; SPOT intensity (Bzz1-2, P38822): 0; SPOT intensity (Sla1-2, P32790): 0; SPOT intensity (Cdc25, P04821): 10; SPOT intensity (Myo5, Q04439): 1; SPOT intensity (Boi1, P38041): 0; SPOT intensity (Cyk3, Q07533): 3
